# Measured values from IntAct's records for PubMed 29892012.
# B1: Ceramide transfer protein (Homo sapiens), Q9Y5P4 (parent)
# chain: MSDNQSWNSSGSEEDPETESGPPVERCGVLSKWTNYIHGWQDRWVVLKNNALSYYKSEDETEYGCRGSICLSKAVITPHDFDECRFDISVNDSVWYLRAQDPDHRQQWIDAIEQHKTESGYGSESSLRRHGSMVSLVSGASGYSATSTSSFKKGHSLREKLAEMETFRDILCRQVDTLQKYFDACADAVSKDELQRDKVVEDDEDDFPTTRSDGDFLHSTNGNKEKLFPHVTPKGINGIDFKGEAITFKATTAGILATLSHCIELMVKREDSWQKRLDKETEKKRRTEEAYKNAMTELKKKSHFGGPDYEEGPNSLINEEEFFDAVEAALDRQDKIEEQSQSEKVRLHWPTSLPSGDAFSSVGTHRFVQKPYSRSSSMSSIDLVSASDDVHRFSSQVEEMVQNHMTYSLQDVGGDANWQLVVEEGEMKVYRREVEENGIVLDPLKATHAVKGVTGHEVCNYFWNVDVRNDWETTIENFHVVETLADNAIIIYQTHKRVWPASQRDVLYLSVIRKIPALTENDPETWIVCNFSVDHDSAPLNNRCVRAKINVAMICQTLVSPPEGNQEISRDNILCKITYVANVNPGGWAPASVLRAVAKREYPKFLKRFTSYVQEKTAGKPILF
# B2: Coiled-coil domain-containing protein 158 (Homo sapiens), Q5M9N0 (parent)
# chain: MESKAWESNNEDLLSSSGVTSNGGSSSSFFVSSIRGTIIENTSSAGTLTQVPFFPKYEVELDSPRKIIPSPGKEHFERVLEEYSHQVKDLQRRLNESNELHEKQKFYLRQSVIDLQTKLQEMQMERDAMADIRRRESQSQEDLRNQLQNTVHELEAAKCLKEDMLKDSNTQIEQLRKMMLSHEGVLQEIRSILVDFEEASGKKICEHDSMSTLHFRSLGSAISKILRELDTEISYLKGRIFPVEDQLEALKSESQNKIELLLQQHQDRIEQLISEHEVEITGLTEKASSARSQANSIQSQMEIIQEQARNQNSMYMRQLSDLESTVSQLRSELREAKRMYEDKTEELEKQLVLANSELTEARTERDQFSQESGNLDDQLQKLLADLHKREKELSLEKEQNKRLWDRDTGNSITIDHLRRELDNRNMEVQRLEALLKALKSECQGQMERQMAAIQGKNESLEKVSSLTAQLESTKEMLRKVVEELTAKKMTLESSERTISDLTTSLQEKERAIEATNAEITKLRSRVDLKLQELQHLKNEGDHLRNVQTECEALKLQMTEKDKVIEILRQQIENMTQLVGQHGRTAGAMQVEKAQLEKEINDRRMELKELKILKDKKDAKIRELEARVSDLELEKVKLVNAGSERLRAVKDIKQERDQLLNEVKTSRSELNNLSEEYEVLKRNFRNKSEEMEMTTNKLKMQLKSAQSELEQTRNTLKSMEGSDGHAMKVAMGMQKQITAKRGQIDALQSKIQFLEEAMTNANKEKHFLKEEKSKLSQELSTVATEKNKMAGELEVLRSQERRLKEKVTNMEVALDKASLQFAECQDIIQRQEQESVRLKLQHTLDIKELQGPGYTSNSSLKPRLLQPASVTRSHSNVPSSQSTASFLSHHSTKANTLKEDPTRDLKQLLQELRSVINEEPAVSLSKTEEDGRTSLGALEDRVRDCITESSLRSDMCHRSNNSLRDSTEGSKSSETLSREPVTLHAGDREDPSGCFTFTSAASPSVKNSASRSFNSSPKKSPVHSLLTSSVEGSIGSTSQYRSAKPIHSSDSVKDSQSPPIETTGKTCRKLQNRLESLQTLVEDLQLKNQAMSSMIRNQEKRIQKVKDQEKMLLK
# partner: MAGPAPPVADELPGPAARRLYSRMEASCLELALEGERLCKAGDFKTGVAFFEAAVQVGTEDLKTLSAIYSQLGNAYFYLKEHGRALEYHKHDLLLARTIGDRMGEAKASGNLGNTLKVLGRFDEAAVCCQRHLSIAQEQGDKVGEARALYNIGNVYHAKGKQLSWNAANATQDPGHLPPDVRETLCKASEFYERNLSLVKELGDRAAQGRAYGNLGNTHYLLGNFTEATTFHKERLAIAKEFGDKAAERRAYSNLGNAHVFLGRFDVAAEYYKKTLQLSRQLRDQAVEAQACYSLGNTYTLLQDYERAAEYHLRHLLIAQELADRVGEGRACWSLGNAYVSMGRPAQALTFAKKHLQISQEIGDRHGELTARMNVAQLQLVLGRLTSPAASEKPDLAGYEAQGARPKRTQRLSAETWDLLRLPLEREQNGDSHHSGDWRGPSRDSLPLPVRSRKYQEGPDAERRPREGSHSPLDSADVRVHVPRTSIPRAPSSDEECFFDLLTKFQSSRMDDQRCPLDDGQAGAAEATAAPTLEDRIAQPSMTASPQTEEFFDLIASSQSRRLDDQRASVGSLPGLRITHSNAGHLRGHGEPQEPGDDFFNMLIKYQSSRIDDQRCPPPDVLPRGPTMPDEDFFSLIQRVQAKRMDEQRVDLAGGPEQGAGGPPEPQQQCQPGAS
# Variants of: B1
# Settings: with ar6p1_human ARL6IP1, Q15041
# Sequence of ar6p1_human ARL6IP1, Q15041 (Q15041 whole entry): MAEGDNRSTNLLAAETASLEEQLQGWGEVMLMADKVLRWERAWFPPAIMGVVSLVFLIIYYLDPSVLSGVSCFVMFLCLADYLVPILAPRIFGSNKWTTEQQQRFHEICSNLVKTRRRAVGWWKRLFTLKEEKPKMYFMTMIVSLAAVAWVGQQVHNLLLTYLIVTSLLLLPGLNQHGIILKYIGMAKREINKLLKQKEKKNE
row,effect of a mutation on the interaction,Variant
1,with no effect,T166A

# Variants of: B1
# Settings: with rtn3_human RTN3, O95197
# Sequence of rtn3_human RTN3, O95197 (O95197 whole entry): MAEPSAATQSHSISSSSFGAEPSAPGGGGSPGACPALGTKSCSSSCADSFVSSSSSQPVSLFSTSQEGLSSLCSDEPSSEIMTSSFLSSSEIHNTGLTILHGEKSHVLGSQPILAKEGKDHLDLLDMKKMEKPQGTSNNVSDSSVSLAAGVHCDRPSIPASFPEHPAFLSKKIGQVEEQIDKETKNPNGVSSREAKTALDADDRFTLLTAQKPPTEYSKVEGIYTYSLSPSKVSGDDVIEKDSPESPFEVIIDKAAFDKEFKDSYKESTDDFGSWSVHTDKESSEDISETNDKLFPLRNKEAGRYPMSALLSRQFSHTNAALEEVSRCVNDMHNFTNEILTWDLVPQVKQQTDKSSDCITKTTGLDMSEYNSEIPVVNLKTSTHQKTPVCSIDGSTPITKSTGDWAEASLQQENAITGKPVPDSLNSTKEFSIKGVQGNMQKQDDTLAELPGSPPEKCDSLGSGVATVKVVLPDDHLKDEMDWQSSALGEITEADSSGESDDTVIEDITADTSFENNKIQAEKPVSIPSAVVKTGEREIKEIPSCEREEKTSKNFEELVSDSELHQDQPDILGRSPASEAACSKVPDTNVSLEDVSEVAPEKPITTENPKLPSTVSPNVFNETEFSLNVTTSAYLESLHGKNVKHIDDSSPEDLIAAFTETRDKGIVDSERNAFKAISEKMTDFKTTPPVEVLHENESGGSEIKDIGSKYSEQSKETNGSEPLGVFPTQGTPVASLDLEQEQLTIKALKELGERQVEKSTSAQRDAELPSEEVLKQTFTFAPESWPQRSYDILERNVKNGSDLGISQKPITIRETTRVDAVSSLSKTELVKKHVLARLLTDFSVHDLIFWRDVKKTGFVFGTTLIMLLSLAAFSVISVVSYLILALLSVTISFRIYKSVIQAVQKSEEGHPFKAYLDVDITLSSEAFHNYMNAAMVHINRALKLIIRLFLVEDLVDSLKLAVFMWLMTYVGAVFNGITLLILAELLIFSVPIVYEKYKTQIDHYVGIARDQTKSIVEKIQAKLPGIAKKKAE
row,effect of a mutation on the interaction,Variant
1,with no effect,T166A

# Variants of: B1
# Settings: with rtn4_human RTN4, Q9NQC3
# Sequence of rtn4_human RTN4, Q9NQC3 (Q9NQC3 whole entry): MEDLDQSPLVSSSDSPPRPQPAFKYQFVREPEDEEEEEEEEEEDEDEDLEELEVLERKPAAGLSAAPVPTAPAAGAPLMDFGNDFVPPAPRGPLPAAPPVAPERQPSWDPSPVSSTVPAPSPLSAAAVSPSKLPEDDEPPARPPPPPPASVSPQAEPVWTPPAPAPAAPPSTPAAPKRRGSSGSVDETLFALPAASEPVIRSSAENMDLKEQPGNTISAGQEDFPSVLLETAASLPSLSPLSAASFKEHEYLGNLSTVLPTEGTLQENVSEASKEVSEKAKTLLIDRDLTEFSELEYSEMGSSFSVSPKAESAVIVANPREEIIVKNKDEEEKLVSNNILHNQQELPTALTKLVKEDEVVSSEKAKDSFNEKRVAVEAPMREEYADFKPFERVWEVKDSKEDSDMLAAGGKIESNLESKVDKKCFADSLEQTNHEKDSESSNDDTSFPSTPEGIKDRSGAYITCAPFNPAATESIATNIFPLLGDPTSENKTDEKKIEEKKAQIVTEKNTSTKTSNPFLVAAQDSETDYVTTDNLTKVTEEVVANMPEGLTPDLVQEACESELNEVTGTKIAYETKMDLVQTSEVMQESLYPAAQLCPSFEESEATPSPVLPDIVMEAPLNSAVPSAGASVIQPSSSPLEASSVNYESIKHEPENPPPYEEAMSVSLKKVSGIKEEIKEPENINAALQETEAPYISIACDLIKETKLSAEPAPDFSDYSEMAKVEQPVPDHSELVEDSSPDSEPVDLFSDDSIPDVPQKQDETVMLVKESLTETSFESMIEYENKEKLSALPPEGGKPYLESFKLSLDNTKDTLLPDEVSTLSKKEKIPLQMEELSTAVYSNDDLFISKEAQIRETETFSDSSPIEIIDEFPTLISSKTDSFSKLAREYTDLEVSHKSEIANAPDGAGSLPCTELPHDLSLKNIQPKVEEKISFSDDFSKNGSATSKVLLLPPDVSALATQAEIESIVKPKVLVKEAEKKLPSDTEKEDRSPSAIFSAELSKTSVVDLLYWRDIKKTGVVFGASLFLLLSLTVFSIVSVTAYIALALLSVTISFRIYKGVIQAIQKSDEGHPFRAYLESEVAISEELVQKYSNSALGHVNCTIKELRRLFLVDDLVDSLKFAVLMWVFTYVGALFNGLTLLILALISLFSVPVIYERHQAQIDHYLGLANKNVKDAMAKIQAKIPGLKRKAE
row,effect of a mutation on the interaction,Variant
1,with no effect,T166A

# Variants of: B2
# Settings: with gpsm1_human GPSM1, Q86YR5
row,effect of a mutation on the interaction,Variant
1,with no effect,R78H
